Blank lines part the entries; values can stand above or below the binder they belong to.
Tests used:
[1] = target: T1, human melanocyte stimulating hormone receptor (MSH receptor), polypeptide of SEQ ID NO:2 (human, UniProt Q01726 1-317); test: competition with 125I-NDP-MSH on pE-11D transfected COS-7 cells; Cheng-Prusoff from IC50
T1 construct: also called 11D cDNA product; expressed MSH receptor
T1 sequence: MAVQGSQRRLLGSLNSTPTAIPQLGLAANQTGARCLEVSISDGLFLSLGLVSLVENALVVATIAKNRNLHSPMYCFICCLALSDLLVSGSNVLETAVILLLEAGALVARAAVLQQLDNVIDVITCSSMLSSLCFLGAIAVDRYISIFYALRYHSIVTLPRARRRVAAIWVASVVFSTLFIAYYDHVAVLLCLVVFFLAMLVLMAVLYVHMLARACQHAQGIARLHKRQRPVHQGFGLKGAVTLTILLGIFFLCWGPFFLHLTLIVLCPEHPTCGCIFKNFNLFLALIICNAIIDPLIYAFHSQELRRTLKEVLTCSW
Description: (§1) 20877, USA). Eighty percent confluent cultures were transfected with 1 μg of pE-11D plasmid DNA and 40 μg lipofectin (BRL, 8400 Helgerman Court, Gaithersburg, Md. 20877, USA) in serum free medium. Five hours after transfection, serum containing medium was replaced, and cells were cultivated for 20 hours. Cells were then scraped off, centrifuged, resuspended in serum containing medium, plated on 48 well plates, and allowed to grow for 24 hours. […] Radioactivity was counted and data analyzed by iterative, non-linear curve fitting programme suitable for radioligand binding analysis (see FIG. 6). […] The Kᵢ-values were then calculated from the IC-50 values estimated thus estimated by using the Cheng and Prusoff equation, as previously described (Cheng and Prusoff 1973).

[2] = target: T2, MC-2 receptor, polypeptide of SEQ ID NO:16 (human, UniProt P33032 1-325); test: competition with 125I-NDP-MSH on pE-MC-2 transfected COS-7 cells; Cheng-Prusoff from IC50
T2 construct: Tested on COS-7 cells transfected with pE-MC-2; also called MSH receptor subtype; pE-MC-2 transfected COS-7 cells
T2 chain: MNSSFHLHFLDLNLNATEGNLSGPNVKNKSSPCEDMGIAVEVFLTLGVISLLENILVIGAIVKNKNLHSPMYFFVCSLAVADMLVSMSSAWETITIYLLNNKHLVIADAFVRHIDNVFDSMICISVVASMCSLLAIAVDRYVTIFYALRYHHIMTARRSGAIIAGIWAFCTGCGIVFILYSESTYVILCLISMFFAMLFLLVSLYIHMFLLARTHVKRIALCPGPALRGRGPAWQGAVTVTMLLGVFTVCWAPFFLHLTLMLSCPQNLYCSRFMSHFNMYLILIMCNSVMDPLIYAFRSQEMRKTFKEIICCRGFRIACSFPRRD
Description: as §1, with “Eighty” for “20877, USA). Eighty”, “pE-MC-2” for “pE-11D”, “9).” for “6).”

[3] = target: T2, MC-2 receptor, polypeptide of SEQ ID …; test: competition with 125I-NDP-MSH on pE-MC-2 transfected COS-7 cells
Description: as §1, with “Eighty” for “20877, USA). Eighty”, “pE-MC-2” for “pE-11D”, “9).” for “6).”

B1: ACTH (1-39) (peptide, UniProt P01189 138-176, looked up)
peptide: SYSMEHFRWGKPVGKKRRPVKVYPNGAEDESAEAFPLEF
notes: domain: ACTH (1-39); Bought from Saxon Biochemicals GmbH; also called adrenocorticotropic hormone (1-39)
Ki [1]: 0.17 nM
Ki [2]: 929 nM

B2: β-endorphin (peptide, UniProt P01189 237-267, looked up)
peptide: YGGFMTSEKSQTPLVTLFKNAIIKNAYKKGE
notes: domain: β-endorphin; Bought from Saxon Biochemicals GmbH; also called non-melanotropic POMC peptide β-endorphin
binding result [3]: no binding

Continued by falling Ki [1], values first:

Ki [1]: 22.4 nM
B3: ACTH (4-10) (peptide, UniProt P01189 141-147, looked up)
peptide: MEHFRWG
notes: domain: ACTH (4-10); Bought from Saxon Biochemicals GmbH

Ki [1]: 0.449 nM
Ki [2]: 1750 nM
B4: β-MSH (peptide, UniProt P01189 217-234, looked up)
peptide: DEGPYRMEHFRWGSPPKD
notes: domain: β-MSH; Bought from Saxon Biochemicals GmbH; also called beta-melanocyte stimulating hormone

Source: patent publication US20020142392A1 (WA PHARM, published 2002)
